Measured values from US20130039923A1 (Novo Nordisk, published 2013).
Positions count from the first letter of the chain named. Read-outs that look alike come from different tables or passages of the source. Ends that are not written are not given here.

Key:
[1] = target: T1, Peptide no. 13 (Figures 7A, 7B) (N-terminus acylated); assay: array of terminally truncated, acylated hIL20 peptides on cellulose; fluorescein-labelled antibody; fluorescence as OD
T1 construct: peptide array on cellulose
T1 peptide: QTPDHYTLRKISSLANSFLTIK
Experimental: (§1) The screenings were done using fluorescence labelled antibodies. The labelling was done by gel-filtering the antibody stock against 1% NaHCO3, using NAP5 column (GE Healthcare according the manual from manufacturer. This was followed by adding 25 mole equivalents of 5(6)-carboxyfluorescein N-hydroxysuccinimide ester (Sigma, C1609) dissolved in DMSO. The coupling was allowed to continue for 2 hours followed by a gelfiltration against TRIS washing buffer (50 mM TRIS, pH=7.4, 0.15M NaCl, 0.1 M ArgHCl, 0.05% Tween 20) in order to removed uncoupled fluorescein.
(§2) Screening of arrays were done by adding 10 μl of antibody to 30 ml incubation buffer (0.5% BSA, 50 mM TRIS, pH=7.4, 0.15M NaCl, 0.1 M ArgHCl, 0.05% Tween 20). The sheets were incubated for 1-2 hours, followed by washing five times with washing buffer. […] The fluorescence intensity were measured and transformed into digits that were exported to Prism 5 (Graph Pad Software, USA) for further analysis.

[2] = target: T2, Peptide no. 44 (Figure 8A); assay: Ala-scan peptide array of hIL20 74-96 on cellulose; fluorescein-labelled antibody; fluorescence as OD
T2 construct: Ala-scan peptide on the array; also called Peptide no; D78A
T2 peptide: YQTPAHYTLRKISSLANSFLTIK
Experimental: as §1, §2

[3] = target: T3, Peptide no. 45 (Figure 8A); assay: as above
T3 construct: Ala-scan peptide on the array; also called Peptide no; H79A
T3 peptide: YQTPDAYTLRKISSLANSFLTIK
Experimental: as §1, §2

[4] = target: T4, Peptide no. 56 (Figure 8A); assay: as above
T4 construct: Ala-scan peptide on the array; also called Peptide no; S91A
T4 peptide: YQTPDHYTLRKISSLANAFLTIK
Experimental: as §1, §2

[5] = target: T5, Peptide no. 57 (Figure 8A); assay: as above
T5 construct: Ala-scan peptide on the array; also called Peptide no; F92A
T5 peptide: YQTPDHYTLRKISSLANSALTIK
Experimental: as §1, §2

[6] = target: T6, Peptide no. 58 (Figure 8A); assay: as above
T6 construct: Ala-scan peptide on the array; also called Peptide no; L93A
T6 peptide: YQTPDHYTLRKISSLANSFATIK
Experimental: as §1, §2

[7] = target: T7, Peptide no. 59 (Figure 8A); assay: as above
T7 construct: Ala-scan peptide on the array; also called Peptide no; T94A
T7 peptide: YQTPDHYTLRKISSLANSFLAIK
Experimental: as §1, §2

[8] = target: T8, Peptide no. 61 (Figure 8A); assay: as above
T8 construct: Ala-scan peptide on the array; also called Peptide no; K96A
T8 peptide: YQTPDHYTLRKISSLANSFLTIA
Experimental: as §1, §2

[9] = target: T9, Peptide no. 86 (Figure 6A); assay: 18mer hIL20 peptide array on cellulose, 4 residue walk; fluorescein-labelled antibody; fluorescence as OD
T9 construct: also called Peptide no
T9 peptide: NYQTPDHYTLRKISSLAN
Experimental: as §1, §2

[10] = target: T10, Peptide no. 87 (Figure 6A); assay: as above
T10 construct: also called Peptide no
T10 peptide: PDHYTLRKISSLANSFLT
Experimental: as §1, §2

[11] = target: T11, Peptide no. 2 (Figures 7A, 7B) (N-terminus acylated); assay: array of terminally truncated, acylated hIL20 peptides on cellulose; fluorescein-labelled antibody; fluorescence as OD
T11 construct: peptide array on cellulose
T11 peptide: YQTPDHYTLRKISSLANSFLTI
Experimental: as §1, §2

[12] = target: T12, Peptide no. 3 (Figures 7A, 7B) (N-terminus acylated); assay: as above
T12 construct: peptide array on cellulose
T12 peptide: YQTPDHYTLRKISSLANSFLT
Experimental: as §1, §2

[13] = target: T13, Peptide no. 4 (Figures 7A, 7B) (N-terminus acylated); assay: as above
T13 construct: peptide array on cellulose
T13 peptide: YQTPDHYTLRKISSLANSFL
Experimental: as §1, §2

[14] = target: T14, Peptide no. 5 (Figures 7A, 7B) (also: N-terminus acylated); assay: as above
T14 construct: peptide array on cellulose
T14 peptide: YQTPDHYTLRKISSLANSF
Experimental: as §1, §2

[15] = target: T15, Peptide no. 6 (Figures 7A, 7B) (also: N-terminus acylated); assay: as above
T15 construct: peptide array on cellulose
T15 peptide: YQTPDHYTLRKISSLANS
Experimental: as §1, §2

[16] = target: T16, Peptide no. 7 (Figures 7A, 7B) (also: N-terminus acylated); assay: as above
T16 construct: peptide array on cellulose
T16 peptide: YQTPDHYTLRKISSLAN
Experimental: as §1, §2

[17] = target: T1, Peptide no. 13 (Figures 7A, 7B); assay: as above
Experimental: as §1, §2

[18] = target: T17, Peptide no. 14 (Figures 7A, 7B) (N-terminus acylated); assay: as above
T17 construct: peptide array on cellulose
T17 peptide: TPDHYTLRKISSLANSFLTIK
Experimental: as §1, §2

[19] = target: T18, Peptide no. 15 (Figures 7A, 7B) (N-terminus acylated); assay: as above
T18 construct: peptide array on cellulose
T18 peptide: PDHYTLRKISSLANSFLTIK
Experimental: as §1, §2

[20] = target: T19, Peptide no. 16 (Figures 7A, 7B) (also: N-terminus acylated); assay: as above
T19 construct: peptide array on cellulose
T19 peptide: DHYTLRKISSLANSFLTIK
Experimental: as §1, §2

[21] = target: T20, Peptide no. 17 (Figures 7A, 7B) (also: N-terminus acylated); assay: as above
T20 construct: peptide array on cellulose
T20 peptide: HYTLRKISSLANSFLTIK
Experimental: as §1, §2

[22] = target: T21, Peptide no. 18 (Figures 7A, 7B) (also: N-terminus acylated); assay: as above
T21 construct: peptide array on cellulose
T21 peptide: YTLRKISSLANSFLTIK
Experimental: as §1, §2

[23] = target: T22, Peptide no. 1 (Figures 7A, 7B) (N-terminus acylated); assay: as above
T22 construct: peptide array on cellulose
T22 peptide: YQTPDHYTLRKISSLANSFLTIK
Experimental: as §1, §2

B1: human anti-hIL20 monoclonal antibody 15D2 (antibody, V domains shown)
VH: QVQLVQSGAEVKRPGASVKVSCKASGYTFTNDIIHWVRQAPGQRLEWMGWINAGYGNTQYSQNFQDRVSITRDTSASTAYMELISLRSEDTAVYYCAREPLWFGESSPHDYYGMDVWGQGTTVTVSS
VL: AIQLTQSPSSLSASVGDRVTITCRASQGISSALAWYQQKPGKAPKLLIYDASSLESGVPSRFSGSGSGTDFTLTISSLQPEDFATYYCQQFNSYPLTFGGGTKVEIKR
notes: also called 15D2-wt; 15D2 wild-type
binding result [1]: binds

B2: human anti-hIL20 monoclonal antibody 5B7 (antibody, human IgG4, V domains shown)
VH: B1 VH with T30S, N31S, D32H, I34M, Q59K, S69T, S106L
VL: B1 VL
notes: described as human IgG4; also called 5B7-wt
binding result [2]: binds
binding result [3]: binds
binding result [4]: binds
binding result [5]: binds
binding result [6]: binds
binding result [7]: binds
binding result [8]: binds
binding result [9]: binds
binding result [10]: binds
binding result [11]: binds
binding result [12]: binds
binding result [13]: binds
binding result [14]: binds
binding result [15]: binds
binding result [16]: binds
binding result [17]: binds
binding result [18]: binds
binding result [19]: binds
binding result [20]: binds
binding result [21]: binds
binding result [22]: no binding
binding result [23]: binds
